Assay results published in the supplement of paper PMC7125110.
± gives the standard error. For some of these results: This sample holds only a part of the variants without activity.

B1: glmS ribozyme (parent)
chain: AUAAAAGCGCCAGAACUACAGAAAUGUAGUUGACGAGGAGGAGGUUUAUCGAAUUUUCGGCGGAUGCCUCCAAA

How the values were obtained:
Details in all cases: with glucosamine-6-phosphate
glucosamine-6-phosphate [1] = variants of: B1; assay: kcat; higher = faster cleavage; RNA array
How it was run: (§1)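 Glucosamine-6-phosphate in HEPES/KCl/Mg(OAc)2 buffer, at 40 μM to 10 mM, was flowed over barcoded ribozyme variants transcribed in situ by E. coli RNA polymerase on sequenced MiSeq chips. Tracking was through a hybridised Cy3 probe at 37 °C. kobs, kcat and KM came from exponential decay fits and weighted Michaelis–Menten fits of normalised per-tile medians.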

glucosamine-6-phosphate [2] = variants of: B1; assay: KM; higher = weaker cofactor use; RNA array
How it was run: as §1

glucosamine-6-phosphate [3] = variants of: B1; assay: self-cleavage kobs at 640 uM GlcN6P; higher = faster cleavage; RNA array
How it was run: as §1

glucosamine-6-phosphate [4] = variants of: B1; assay: self-cleavage kobs at 2500 uM GlcN6P; higher = faster cleavage; RNA array
How it was run: as §1

glucosamine-6-phosphate [5] = variants of: B1; assay: self-cleavage kobs at 10000 uM GlcN6P; higher = faster cleavage; RNA array
How it was run: as §1

glucosamine-6-phosphate [6] = variants of: B1; assay: self-cleavage kobs at 160 uM GlcN6P; higher = faster cleavage; RNA array
How it was run: as §1

glucosamine-6-phosphate [7] = variants of: B1; assay: self-cleavage kobs at 40 uM GlcN6P; higher = faster cleavage; RNA array
How it was run: as §1

| Variant | kcat (glucosamine-6-phosphate [1]) [s⁻¹] | KM (glucosamine-6-phosphate [2]) [µM] | self-cleavage kobs at 640 uM GlcN6P (glucosamine-6-phosphate [3]) [s⁻¹] | self-cleavage kobs at 2500 uM GlcN6P (glucosamine-6-phosphate [4]) [s⁻¹] | self-cleavage kobs at 10000 uM GlcN6P (glucosamine-6-phosphate [5]) [s⁻¹] | self-cleavage kobs at 160 uM GlcN6P (glucosamine-6-phosphate [6]) [s⁻¹] | self-cleavage kobs at 40 uM GlcN6P (glucosamine-6-phosphate [7]) [s⁻¹] |
| --- | --- | --- | --- | --- | --- | --- | --- |
| A6U C68U | 8.73e-05 ± 5.1e-06 | 491 ± 140 | 4.75e-05 ± 8.3e-06 | 8.07e-05 ± 9e-06 | 8e-05 ± 7.3e-06 |  |  |
| G66C U69C | 0.000157 ± 7.2e-05 |  | 7.5e-05 ± 2.8e-05 | 6.79e-05 ± 1.5e-05 | 0.000137 ± 2.8e-05 |  |  |
| C16A C58G | 3.2e-05 ± 7.1e-06 |  |  | 4.47e-05 ± 1.2e-05 | 2.59e-05 ± 8.5e-06 |  |  |
| G37C U69G | 2.05e-05 ± 4e-06 |  |  |  |  |  |  |
| A33C A53U | 0.000206 ± 3.2e-05 |  | 7.53e-05 ± 1.6e-05 | 0.000246 ± 5.8e-05 | 0.000182 ± 1.9e-05 |  |  |
| U31G G66U | 0.000571 ± 6e-05 | 2410 ± 400 | 0.000126 ± 1.5e-05 | 0.00029 ± 4.4e-05 | 0.000452 ± 8e-05 | 2.77e-05 ± 1e-05 |  |
| G41U U49G | 3.94e-05 ± 6e-06 |  |  |  | 3.38e-05 ± 1e-05 |  | < 1e-05 |
| A12G U30A | 0.00011 ± 1.9e-06 | 2890 ± 160 |  | 5.17e-05 ± 9.7e-06 | 8.52e-05 ± 7.5e-06 |  |  |
| A42U U45C | 0.000116 ± 1e-05 | 2890 ± 650 | 2.56e-05 ± 1.1e-05 | 5.1e-05 ± 1e-05 | 9.13e-05 ± 1.2e-05 |  |  |
| A12G C34U C58U C68G | 3.16e-05 ± 4.5e-06 |  |  |  |  |  |  |
| C10A G32U A53U C67U | 1.23e-05 ± 4.1e-06 |  |  |  |  |  |  |
| G40U A48C | 5.25e-05 ± 2.1e-05 |  |  |  | 3.45e-05 ± 9.8e-06 | < 1e-05 |  |
| G40U A48U | 7.9e-05 ± 9.5e-06 | 3220 ± 1300 |  | 3.77e-05 ± 1.6e-05 | 5.95e-05 ± 8.8e-06 |  | < 1e-05 |
| U31C G32C | 0.000493 ± 0.00011 | 4480 ± 2100 |  | 0.00017 ± 2.6e-05 | 0.000344 ± 3.5e-05 |  |  |
| A14G U65G | 0.00446 ± 0.00028 | 3780 ± 310 | 0.000633 ± 5.3e-05 | 0.00182 ± 0.00016 | 0.00321 ± 0.00033 | 0.000193 ± 2.1e-05 | 4.37e-05 ± 6.7e-06 |
| A14U C61A C70A | 1.21e-05 ± 3.3e-06 |  |  |  |  |  |  |
| U31C U65G | 0.0016 ± 0.00034 | 5250 ± 1700 | 0.000198 ± 2.5e-05 | 0.000465 ± 7.2e-05 | 0.00108 ± 0.00013 |  |  |
| A6U U57G C67G | 2.88e-05 ± 7.6e-06 |  |  |  |  |  |  |
| U57A C70U | 0.000272 ± 5.5e-05 | 2300 ± 790 | 5.92e-05 ± 7.8e-06 | 0.000133 ± 1.9e-05 | 0.000234 ± 3.8e-05 | 5.07e-05 ± 2.3e-05 |  |
| G29A G32U | 0.00277 ± 0.00084 |  | 7.58e-05 ± 1.8e-05 | 0.000325 ± 5.7e-05 | 0.000888 ± 0.00014 |  |  |
